Columns and labels:
Test in all cases: cell-based or functional assay
[1] = biological target: Env of HIV-1 strain X1254_c3 (HIV-1)
[2] = biological target: Env of HIV-1 strain 3365.v2.c20 (HIV-1)
[3] = biological target: Env of HIV-1 strain 3415.v1.c1 (HIV-1)
[4] = biological target: Env of HIV-1 strain ZM109F.PB4 (HIV-1)
[5] = biological target: Env of HIV-1 strain 231965.c1 (HIV-1)
[6] = biological target: Env of HIV-1 strain 3016.v5.c45 (HIV-1)
Env of MuLV = biological target: Env of MuLV
[7] = biological target: Env of HIV-1 strain Du172.17 (HIV-1)
[8] = biological target: Env of HIV-1 strain PVO.4 (HIV-1)
[9] = biological target: Env of HIV-1 strain ZM53M.PB12 (HIV-1)
[10] = biological target: Env of HIV-1 strain R1166.c1 (HIV-1)
[11] = biological target: Env of HIV-1 strain YU2.DG (HIV-1)
[12] = biological target: Env of HIV-1 strain REJO4541.67 (HIV-1)
[13] = biological target: Env of HIV-1 strain 251-18 (HIV-1)
[14] = biological target: Env of HIV-1 strain 250-4 (HIV-1)
[15] = biological target: Env of HIV-1 strain H086.8 (HIV-1)

B1: 8ANC3630 (antibody, V domains shown)
VH: QIHLVQSGTEVKKPGSSVTVSCKAYGVNTFGLYAVNWVRQAPGQSLEYIGQIWRWKSSASHHFRGRVLISAVDLTGSSPPISSLEIKNLTSDDTAVYFCTTTSTYDRWSGLHHDGVMAFSSWGQGTLISVSA
VL: DIQMTQSPSTLSASIGDTVRISCRASQSITGGWLAWYHQRPGKAPRLLIYRGSRLLGGVPSRFSGSAAGTDFTLTIANLQAEDFGTFYCQQYDTYPGTFGQGTKVEVKR
[1]
  neutralization IC50: 2.38 µg/mL
[2]
  neutralization IC50: > 30 µg/mL
[3]
  neutralization IC50: 28 µg/mL
[4]
  neutralization IC50: > 30 µg/mL
[5]
  neutralization IC50: 0.375 µg/mL
[6]
  neutralization IC50: 0.136 µg/mL
Env of MuLV
  neutralization IC50: > 30 µg/mL
[7]
  neutralization IC50: > 30 µg/mL
[8]
  neutralization IC50: 0.102 µg/mL
[9]
  neutralization IC50: > 30 µg/mL
[10]
  neutralization IC50: 1.45 µg/mL
[11]
  neutralization IC50: 0.468 µg/mL
[12]
  neutralization IC50: 2.65 µg/mL
[13]
  neutralization IC50: 0.73 µg/mL
[14]
  neutralization IC50: > 30 µg/mL
[15]
  neutralization IC50: 0.3 µg/mL

B2: 8ANC3044 (antibody, V domains shown)
VH: QIHLVQSGTEVRKPGSSVTVSCKAYGVNTFGLYAVNWVRQAPGQSLEYIGQIWRWKSSASHHFRGRVLISAVDLTGSSPPISSLEIKNLTSDDTAVYFCTTTSTYDKWSGLHHDGVMAFSSWGQGTLISVSA
VL: DIQMTQSPSTLSASIGDTVRISCRASQSITGNWVAWYQQRPGKAPRLLIYRGAALLGGVPSRFSGSAAGTDFTLTIGNLQTEDFGTFYCQQYDTYPGTFGQGTKVEVKR
[1]
  neutralization IC50: 4.54 µg/mL
[2]
  neutralization IC50: > 30 µg/mL
[3]
  neutralization IC50: 7.56 µg/mL
[4]
  neutralization IC50: > 30 µg/mL
[5]
  neutralization IC50: 1.33 µg/mL
[6]
  neutralization IC50: 0.242 µg/mL
Env of MuLV
  neutralization IC50: > 30 µg/mL
[7]
  neutralization IC50: > 30 µg/mL
[8]
  neutralization IC50: 0.26 µg/mL
[9]
  neutralization IC50: 15.2 µg/mL
[10]
  neutralization IC50: 2.38 µg/mL
[11]
  neutralization IC50: 0.747 µg/mL
[12]
  neutralization IC50: 0.278 µg/mL
[13]
  neutralization IC50: 0.858 µg/mL
[14]
  neutralization IC50: > 30 µg/mL
[15]
  neutralization IC50: 3.83 µg/mL

B3: 8ANC3430 (antibody, V domains shown)
VH: QIHLVQSGTEVKKPGSSVTVSCKAYGVNTFGLYAVNWVRQAPGQSLEYIGQIWRWKSSASHHFRGRVIISAVDLTGSSPPISSLEIKNLTSDDTAVYFCTTTSTSDYWSGLHHDGVMAFSSWGQGTLISVSA
VL: DIQMTQSPSTLSASVGDTVRISCRASQSITGGWLAWYHQRPGKAPRLLIYRGSRLLGGVPSRFSGSAAGTDFTLTIANLQAEDFGTFYCQQYDTYPGTFGQGTKVEVKR
[1]
  neutralization IC50: 4.28 µg/mL
[2]
  neutralization IC50: > 23 µg/mL
[3]
  neutralization IC50: > 23 µg/mL
[4]
  neutralization IC50: > 23 µg/mL
[5]
  neutralization IC50: 1.19 µg/mL
[6]
  neutralization IC50: 0.271 µg/mL
Env of MuLV
  neutralization IC50: > 23 µg/mL
[7]
  neutralization IC50: > 23 µg/mL
[8]
  neutralization IC50: 0.206 µg/mL
[9]
  neutralization IC50: > 23 µg/mL
[10]
  neutralization IC50: 3.64 µg/mL
[11]
  neutralization IC50: 0.545 µg/mL
[12]
  neutralization IC50: 0.198 µg/mL
[13]
  neutralization IC50: 6.17 µg/mL
[14]
  neutralization IC50: > 23 µg/mL
[15]
  neutralization IC50: > 23 µg/mL

B4: γ3κ5 (antibody, V domains shown)
VH: QIHLVQSGTEVKKPGSSVTVSCKAYGVNTFGLYAVSWVRQAPGQRLEYIGQIRRWKSSASHHFRGRVTVSAVDPTGSSPPISSLEIRDLTTDDTAVYFCTTTSTSDYWSGLHNERGTAFSSWGQGTLISVSA
VL: DIQMTQSPSTLSASTGDTVRISCRASQSITGNWVAWYQQRPGKAPRLLIYRGAALLGGVPSRFRGSAAGTDFTLTIGNLQAEDFGTFYCQQYDTYPGTFGQGTKVEVKR
[1]
  neutralization IC50: 1.72 µg/mL
[2]
  neutralization IC50: > 15 µg/mL
[3]
  neutralization IC50: > 15 µg/mL
[4]
  neutralization IC50: > 15 µg/mL
[5]
  neutralization IC50: 0.697 µg/mL
[6]
  neutralization IC50: 0.314 µg/mL
Env of MuLV
  neutralization IC50: > 15 µg/mL
[7]
  neutralization IC50: 3.73 µg/mL
[8]
  neutralization IC50: 0.081 µg/mL
[9]
  neutralization IC50: > 15 µg/mL
[10]
  neutralization IC50: 2.07 µg/mL
[11]
  neutralization IC50: 0.2 µg/mL
[12]
  neutralization IC50: 0.097 µg/mL
[13]
  neutralization IC50: 0.721 µg/mL
[14]
  neutralization IC50: > 15 µg/mL
[15]
  neutralization IC50: 0.434 µg/mL

B5: γ22κ5 (antibody, V domains shown)
VH: QIHLVQSGTEVKKPGSSVTVSCKAYGVNTFGLYAVNWVRQAPGQSLEYIGQIWRWKSSASHHFRGRVLISAVDLTGPSPPISSLEIKNLTSDDTAVYFCTTTSTYDKWSGLHHDGVMAFSSWGQGTLISVSA
VL: DIQMTQSPSTLSASTGDTVRISCRASQSITGNWVAWYQQRPGKAPRLLIYRGAALLGGVPSRFRGSAAGTDFTLTIGNLQAEDFGTFYCQQYDTYPGTFGQGTKVEVKR
[1]
  neutralization IC50: 1.52 µg/mL
[2]
  neutralization IC50: > 15 µg/mL
[3]
  neutralization IC50: > 15 µg/mL
[4]
  neutralization IC50: > 15 µg/mL
[5]
  neutralization IC50: 0.69 µg/mL
[6]
  neutralization IC50: 0.103 µg/mL
Env of MuLV
  neutralization IC50: > 30 µg/mL
[7]
  neutralization IC50: > 15 µg/mL
[8]
  neutralization IC50: 0.352 µg/mL
[9]
  neutralization IC50: > 15 µg/mL
[10]
  neutralization IC50: 2.4 µg/mL
[11]
  neutralization IC50: 0.569 µg/mL
[12]
  neutralization IC50: 0.795 µg/mL
[13]
  neutralization IC50: 1.7 µg/mL
[14]
  neutralization IC50: > 15 µg/mL
[15]
  neutralization IC50: > 15 µg/mL

B6: γ23κ5 (antibody, V domains shown)
VH: QIHLVQSGTEVKKPGSSVTVSCKAYGVNTFGLYAVNWVRQAPGQSLEYIGQIWRWKSSASHHFRGRVIISAVDLTGSSPPISSLEIKNLTSDDTAVYFCTTTSTSDYWSGLHHDGVMAFSSWGQGTLISVSA
VL: DIQMTQSPSTLSASTGDTVRISCRASQSITGNWVAWYQQRPGKAPRLLIYRGAALLGGVPSRFRGSAAGTDFTLTIGNLQAEDFGTFYCQQYDTYPGTFGQGTKVEVKR
[1]
  neutralization IC50: 0.919 µg/mL
[2]
  neutralization IC50: > 15 µg/mL
[3]
  neutralization IC50: 1.48 µg/mL
[4]
  neutralization IC50: > 15 µg/mL
[5]
  neutralization IC50: 0.291 µg/mL
[6]
  neutralization IC50: 0.091 µg/mL
Env of MuLV
  neutralization IC50: > 30 µg/mL
[7]
  neutralization IC50: 1.81 µg/mL
[8]
  neutralization IC50: 0.043 µg/mL
[9]
  neutralization IC50: 5.88 µg/mL
[10]
  neutralization IC50: 1.07 µg/mL
[11]
  neutralization IC50: 0.136 µg/mL
[12]
  neutralization IC50: 0.091 µg/mL
[13]
  neutralization IC50: 0.176 µg/mL
[14]
  neutralization IC50: > 15 µg/mL
[15]
  neutralization IC50: 0.474 µg/mL

B7: γ59κ5 (antibody, V domains shown)
VH: QIHLVQSGTEVKKPGSSVTVSCKAYGVNTFGLYAVNWVRQAPGQGLEYIGQIWRWKSSASHHFRGRVLISAVDLTGSSPPISSLEIKNVTSDDTAVYFCTTTSTYDEWSDLHHDGVMAFSSWGQGTLISVSA
VL: DIQMTQSPSTLSASTGDTVRISCRASQSITGNWVAWYQQRPGKAPRLLIYRGAALLGGVPSRFRGSAAGTDFTLTIGNLQAEDFGTFYCQQYDTYPGTFGQGTKVEVKR
[1]
  neutralization IC50: 9.42 µg/mL
[2]
  neutralization IC50: > 15 µg/mL
[3]
  neutralization IC50: > 15 µg/mL
[4]
  neutralization IC50: > 15 µg/mL
[5]
  neutralization IC50: > 15 µg/mL
[6]
  neutralization IC50: > 15 µg/mL
Env of MuLV
  neutralization IC50: > 30 µg/mL
[7]
  neutralization IC50: > 15 µg/mL
[8]
  neutralization IC50: > 15 µg/mL
[9]
  neutralization IC50: 24.1 µg/mL
[10]
  neutralization IC50: 28.2 µg/mL
[11]
  neutralization IC50: 7.28 µg/mL
[12]
  neutralization IC50: 4.67 µg/mL
[13]
  neutralization IC50: 6.96 µg/mL
[14]
  neutralization IC50: > 15 µg/mL
[15]
  neutralization IC50: > 15 µg/mL

From patent publication US20180171001A1
